# Measured values: patent US20110091994A1, “Methods for Screening Compounds for Treating and/or Preventing an Hepatitis C Virus Infection” (priority 2008, published 2011)
# B1: DDX3Y (protein, UniProt O15523 2-660, looked up)
# ATP-dependent RNA helicase …: SHVVVKNDPELDQQLANLDLNSEKQSGGASTASKGRYIPPHLRNREASKGFHDKDSSGWSCSKDKDAYSSFGSRDSRGKPGYFSERGSGSRGRFDDRGRSDYDGIGNRERPGFGRFERSGHSRWCDKSVEDDWSKPLPPSERLEQELFSGGNTGINFEKYDDIPVEATGSNCPPHIENFSDIDMGEIIMGNIELTRYTRPTPVQKHAIPIIKGKRDLMACAQTGSGKTAAFLLPILSQIYTDGPGEALKAVKENGRYGRRKQYPISLVLAPTRELAVQIYEEARKFSYRSRVRPCVVYGGADIGQQIRDLERGCHLLVATPGRLVDMMERGKIGLDFCKYLVLDEADRMLDMGFEPQIRRIVEQDTMPPKGVRHTMMFSATFPKEIQMLARDFLDEYIFLAVGRVGSTSENITQKVVWVEDLDKRSFLLDILGATGSDSLTLVFVETKKGADSLEDFLYHEGYACTSIHGDRSQRDREEALHQFRSGKSPILVATAVAARGLDISNVRHVINFDLPSDIEEYVHRIGRTGRVGNLGLATSFFNEKNMNITKDLLDLLVEAKQEVPSWLENMAYEHHYKGGSRGRSKSNRFSGGFGARDYRQSSGSSSSGFGASRGSSSRSGGGGYGNSRGFGGGGYGGFYNSDGYGGNYNSQGVDWWGN
# B2: EGFL7 (protein, UniProt Q9UHF1 24-273, looked up)
# Epidermal growth factor-like …: YRPGRRVCAVRAHGDPVSESFVQRVYQPFLTTCDGHRACSTYRTIYRTAYRRSPGLAPARPRYACCPGWKRTSGLPGACGAAICQPPCRNGGSCVQPGRCRCPAGWRGDTCQSDVDECSARRGGCPQRCVNTAGSYWCQCWEGHSLSADGTLCVPKGGPPRVAPNPTGVDSAMKEEVQRLQSRVDLLEEKLQLVLAPLHSLASQALEHGLPDPGSLLVHSFQQLGRIDSLSEQISFLEEQLGSCSCKKDS
# B3: DLAT (protein, UniProt P10515 87-647, looked up)
# Dihydrolipoyllysine-residue …: SLPPHQKVPLPSLSPTMQAGTIARWEKKEGDKINEGDLIAEVETDKATVGFESLEECYMAKILVAEGTRDVPIGAIICITVGKPEDIEAFKNYTLDSSAAPTPQAAPAPTPAATASPPTPSAQAPGSSYPPHMQVLLPALSPTMTMGTVQRWEKKVGEKLSEGDLLAEIETDKATIGFEVQEEGYLAKILVPEGTRDVPLGTPLCIIVEKEADISAFADYRPTEVTDLKPQVPPPTPPPVAAVPPTPQPLAPTPSAPCPATPAGPKGRVFVSPLAKKLAVEKGIDLTQVKGTGPDGRITKKDIDSFVPSKVAPAPAAVVPPTGPGMAPVPTGVFTDIPISNIRRVIAQRLMQSKQTIPHYYLSIDVNMGEVLLVRKELNKILEGRSKISVNDFIIKASALACLKVPEANSSWMDTVIRQNHVVDVSVAVSTPAGLITPIVFNAHIKGVETIANDVVSLATKAREGKLQPHEFQGGTFTISNLGMFGIKNFSAIINPPQACILAIGASEDKLVPADNEKGFDVASMMSVTLSCDHRVVDGAVGAQWLAEFRKYLEKPITMLL
# B4: EEF1A1 (protein, UniProt P68104 2-462, looked up)
# Elongation factor 1-alpha 1: GKEKTHINIVVIGHVDSGKSTTTGHLIYKCGGIDKRTIEKFEKEAAEMGKGSFKYAWVLDKLKAERERGITIDISLWKFETSKYYVTIIDAPGHRDFIKNMITGTSQADCAVLIVAAGVGEFEAGISKNGQTREHALLAYTLGVKQLIVGVNKMDSTEPPYSQKRYEEIVKEVSTYIKKIGYNPDTVAFVPISGWNGDNMLEPSANMPWFKGWKVTRKDGNASGTTLLEALDCILPPTRPTDKPLRLPLQDVYKIGGIGTVPVGRVETGVLKPGMVVTFAPVNVTTEVKSVEMHHEALSEALPGDNVGFNVKNVSVKDVRRGNVAGDSKNDPPMEAAGFTAQVIILNHPGQISAGYAPVLDCHTAHIACKFAELKEKIDRRSGKKLEDGPKFLKSGDAAIVDMVPGKPMCVESFSDYPPLGRFAVRDMRQTVAVGVIKAVDKKAAGAGKVTKSAQKAQKAK
# B5: FAM65A (protein, UniProt Q6ZS17 1-1223, looked up)
# Rho family-interacting cell …: MMSLSVRPQRRLLSARVNRSQSFAGVLGSHERGPSLSFRSFPVFSPPGPPRKPPALSRVSRMFSVAHPAAKVPQPERLDLVYTALKRGLTAYLEVHQQEQEKLQGQIRESKRNSRLGFLYDLDKQVKSIERFLRRLEFHASKIDELYEAYCVQRRLRDGAYNMVRAYTTGSPGSREARDSLAEATRGHREYTESMCLLESELEAQLGEFHLRMKGLAGFARLCVGDQYEICMKYGRQRWKLRGRIEGSGKQVWDSEETIFLPLLTEFLSIKVTELKGLANHVVVGSVSCETKDLFAALPQVVAVDINDLGTIKLSLEVTWSPFDKDDQPSAASSVNKASTVTKRFSTYSQSPPDTPSLREQAFYNMLRRQEELENGTAWSLSSESSDDSSSPQLSGTARHSPAPRPLVQQPEPLPIQVAFRRPETPSSGPLDEEGAVAPVLANGHAPYSRTLSHISEASVDAALAEASVEAVGPESLAWGPSPPTHPAPTHGEHPSPVPPALDPGHSATSSTLGTTGSVPTSTDPAPSAHLDSVHKSTDSGPSELPGPTHTTTGSTYSAITTTHSAPSPLTHTTTGSTHKPIISTLTTTGPTLNIIGPVQTTTSPTHTMPSPTHTTASPTHTSTSPTHTPTSPTHKTSMSPPTTTSPTPSGMGLVQTATSPTHPTTSPTHPTTSPILINVSPSTSLELATLSSPSKHSDPTLPGTDSLPCSPPVSNSYTQADPMAPRTPHPSPAHSSRKPLTSPAPDPSESTVQSLSPTPSPPTPAPQHSDLCLAMAVQTPVPTAAGGSGDRSLEEALGALMAALDDYRGQFPELQGLEQEVTRLESLLMQRQGLTRSRASSLSITVEHALESFSFLNEDEDEDNDVPGDRPPSSPEAGAEDSIDSPSARPLSTGCPALDAALVRHLYHCSRLLLKLGTFGPLRCQEAWALERLLREARVLEAVCEFSRRWEIPASSAQEVVQFSASRPGFLTFWDQCTERLSCFLCPVERVLLTFCNQYGARLSLRQPGLAEAVCVKFLEDALGQKLPRRPQPGPGEQLTVFQFWSFVETLDSPTMEAYVTETAEEVLLVRNLNSDDQAVVLKALRLAPEGRLRRDGLRALSSLLVHGNNKVMAAVSTQLRSLSLGPTFRERALLCFLDQLEDEDVQTRVAGCLALGCIKAPEGIEPLVYLCQTDTEAVREAARQSLQQCGEEGQSAHRRLEESLDALPRIFGPGSMASTAF
# B6: DDX3X (protein, UniProt O00571 2-662, looked up)
# ATP-dependent RNA helicase …: SHVAVENALGLDQQFAGLDLNSSDNQSGGSTASKGRYIPPHLRNREATKGFYDKDSSGWSSSKDKDAYSSFGSRSDSRGKSSFFSDRGSGSRGRFDDRGRSDYDGIGSRGDRSGFGKFERGGNSRWCDKSDEDDWSKPLPPSERLEQELFSGGNTGINFEKYDDIPVEATGNNCPPHIESFSDVEMGEIIMGNIELTRYTRPTPVQKHAIPIIKEKRDLMACAQTGSGKTAAFLLPILSQIYSDGPGEALRAMKENGRYGRRKQYPISLVLAPTRELAVQIYEEARKFSYRSRVRPCVVYGGADIGQQIRDLERGCHLLVATPGRLVDMMERGKIGLDFCKYLVLDEADRMLDMGFEPQIRRIVEQDTMPPKGVRHTMMFSATFPKEIQMLARDFLDEYIFLAVGRVGSTSENITQKVVWVEESDKRSFLLDLLNATGKDSLTLVFVETKKGADSLEDFLYHEGYACTSIHGDRSQRDREEALHQFRSGKSPILVATAVAARGLDISNVKHVINFDLPSDIEEYVHRIGRTGRVGNLGLATSFFNERNINITKDLLDLLVEAKQEVPSWLENMAYEHHYKGSSRGRSKSSRFSGGFGARDYRQSSGASSSSFSSSRASSSRSGGGGHGSSRGFGGGGYGGFYNSDGYGGNYNSQGVDWWGN
# B7: NAPL1L2 (protein, UniProt Q9ULW6 1-460, looked up)
# Nucleosome assembly protein …: MAESENRKELSESSQEEAGNQIMVEGLGEHLERGEDAAAGLGDDGKCGEEAAAGLGEEGENGEDTAAGSGEDGKKGGDTDEDSEADRPKGLIGYVLDTDFVESLPVKVKYRVLALKKLQTRAANLESKFLREFHDIERKFAEMYQPLLEKRRQIINAIYEPTEEECEYKSDSEDCDDEEMCHEEMYGNEEGMVHEYVDEDDGYEDYYYDYAVEEEEEEEEEDDIEATGEENKEEEDPKGIPDFWLTVLKNVDTLTPLIKKYDEPILKLLTDIKVKLSDPGEPLSFTLEFHFKPNEYFKNELLTKTYVLKSKLAYYDPHPYRGTAIEYSTGCEIDWNEGKNVTLKTIKKKQKHRIWGTIRTVTEDFPKDSFFNFFSPHGITSNGRDGNDDFLLGHNLRTYIIPRSVLFFSGDALESQQEGVVREVNDAIYDKIIYDNWMAAIEEVKACCKNLEALVEDIDR
# B8: BIN1 (protein, UniProt O00499 2-593, looked up)
# Myc box-dependent-interacting …: AEMGSKGVTAGKIASNVQKKLTRAQEKVLQKLGKADETKDEQFEQCVQNFNKQLTEGTRLQKDLRTYLASVKAMHEASKKLNECLQEVYEPDWPGRDEANKIAENNDLLWMDYHQKLVDQALLTMDTYLGQFPDIKSRIAKRGRKLVDYDSARHHYESLQTAKKKDEAKIAKPVSLLEKAAPQWCQGKLQAHLVAQTNLLRNQAEEELIKAQKVFEEMNVDLQEELPSLWNSRVGFYVNTFQSIAGLEENFHKEMSKLNQNLNDVLVGLEKQHGSNTFTVKAQPSDNAPAKGNKSPSPPDGSPAATPEIRVNHEPEPAGGATPGATLPKSPSQLRKGPPVPPPPKHTPSKEVKQEQILSLFEDTFVPEISVTTPSQFEAPGPFSEQASLLDLDFDPLPPVTSPVKAPTPSGQSIPWDLWEPTESPAGSLPSGEPSAAEGTFAVSWPSQTAEPGPAQPAEASEVAGGTQPAAGAQEPGETAASEAASSSLPAVVVETFPATVNGTVEGGSGAGRLDLPPGFMFKVQAQHDYTATDTDELQLKAGDVVLVIPFQNPEEQDEGWLMGVKESDWNQHKELEKCRGVFPENFTERVP
# B9: UBASH3A (protein, UniProt P57075 1-661, looked up)
# Ubiquitin-associated and SH3 …: MAAGETQLYAKVSNKLKSRSSPSLLEPLLAMGFPVHTALKALAATGRKTAEEALAWLHDHCNDPSLDDPIPQEYALFLCPTGPLLEKLQEFWRESKRQCAKNRAHEVFPHVTLCDFFTCEDQKVECLYEALKRAGDRLLGSFPTAVPLALHSSISYLGFFVSGSPADVIREFAMTFATEASLLAGTSVSRFWIFSQVPGHGPNLRLSNLTRASFVSHYILQKYCSVKPCTKQLHLTLAHKFYPHHQRTLEQLARAIPLGHSCQWTAALYSRDMRFVHYQTLRALFQYKPQNVDELTLSPGDYIFVDPTQQDEASEGWVIGISQRTGCRGFLPENYTDRASESDTWVKHRMYTFSLATDLNSRKDGEASSRCSGEFLPQTARSLSSLQALQATVARKSVLVVRHGERVDQIFGKAWLQQCSTPDGKYYRPDLNFPCSLPRRSRGIKDFENDPPLSSCGIFQSRIAGDALLDSGIRISSVFASPALRCVQTAKLILEELKLEKKIKIRVEPGIFEWTKWEAGKTTPTLMSLEELKEANFNIDTDYRPAFPLSALMPAESYQEYMDRCTASMVQIVNTCPQDTGVILIVSHGSTLDSCTRPLLGLPPRECGDFAQLVRKIPSLGMCFCEENKEEGKWELVNPPVKTLTHGANAAFNWRNWISGN
# Test system: HCV ORFs (Gal4-DB fusions)
# Format: binding, HCV genotype 1b, isolate con1
# Details: human protein listed by gene symbol; the value names the HCV protein it interacts with
# 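Further: yeast two-hybrid screens using HCV genotype 1b proteins fused to Gal4-DB as baits against prey cDNA libraries from human spleen and foetal brain, IMAP1 via transformation and IMAP2 via mating.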
row,Molecule,Interaction with viral protein
1,B1,CORE
2,B2,CORE
3,B3,NS3
4,B4,NS3
5,B5,NS3

# Target: T1, HCV ORFs (Gal4-DB fusions) (Hepatitis C virus genotype 1b, UniProt Q9WMX2)
# T1 construct: expressed in transfected cells; host or cells: Saccharomyces cerevisiae MAV203 (IMAP1) / AH109 (IMAP2)
# Format: binding, HCV genotype 1b, isolate con1
# Details: HCV protein CORE as bait; human protein as prey
row,Molecule,IMAP Y2H IMAP2 (number of IST)
1,B1,3
2,B2,1
3,B6,1

# Same assay, conditions: HCV protein NS3 as bait; human protein as prey
row,Molecule,IMAP Y2H IMAP2 (number of IST)
1,B3,8
2,B4,1
3,B5,1
4,B7,1

# Same assay, conditions: HCV protein NS5A as bait; human protein as prey
Molecule,IMAP Y2H IMAP1 (number of IST),IMAP Y2H IMAP2 (number of IST)
B8,16,14
B9,,1
